Test results reported in PMC9997507.

Target: ADAM23-Fc (UniProt Q9R1V7)
Experiment: pull-down; as a2 but with co-expressed LGI3 (LGI3V5/His plasmid); secreted proteins precipitated from conditioned medium with Protein A or Ni-NTA beads; Western blot, band densities quantified in triplicate for ADAM23Fc with ADAM23γHis

ADAM23γV5/His (domain or fragment)
fold change of the interaction with LGI3 against without LGI3: 2.5 fold
